Measurements published in patent publication US20240109974A1 (SHANDONG SIMCERE BIOPHARMACEUTICAL, published 2024).

Assays:
[1] = target: T1, human TNFR2 on the surface of CHO-TNFR2 cells (human, UniProt P20333 23-461); experiment: competition flow cytometry on CHO-TNFR2 cells, competitor TNFα-biotin; IC50 against 224-WT
T1 construct: whole, on cells
T1 sequence (looked up): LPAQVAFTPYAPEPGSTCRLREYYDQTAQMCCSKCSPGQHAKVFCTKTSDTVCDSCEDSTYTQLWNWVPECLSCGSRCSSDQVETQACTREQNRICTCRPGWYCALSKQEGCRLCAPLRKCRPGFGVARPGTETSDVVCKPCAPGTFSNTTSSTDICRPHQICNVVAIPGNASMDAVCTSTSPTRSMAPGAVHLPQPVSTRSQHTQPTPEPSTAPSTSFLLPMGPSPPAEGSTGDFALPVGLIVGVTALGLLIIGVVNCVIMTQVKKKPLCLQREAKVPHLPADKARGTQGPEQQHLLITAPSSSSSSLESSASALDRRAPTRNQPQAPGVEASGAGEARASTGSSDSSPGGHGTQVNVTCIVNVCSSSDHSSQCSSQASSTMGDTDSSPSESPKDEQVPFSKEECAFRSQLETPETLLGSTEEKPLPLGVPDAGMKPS
Description: (§1) CHO stable cells highly expressing human TNFR2 were used for the experiment (the same as CHO-TNFR2 in Example 4). The CHO-TNFR2 cells were digested, washed twice with DPBS, then stained with Live/Dead (L/D) (20 minutes at room temperature), and plated at a density of 1×10⁵ cells/50 μl/well. A test anti-TNFR2 antibody was diluted to 6 μg/ml with a staining buffer as the starting concentration: the antibody was subjected to 3.33-fold gradient dilution, with a total of 7 concentration points. The diluted antibody was added to the plated cells at 50 μl/well, and the mixture was mixed well by gentle pipetting, and incubated at 4° C. for 30 minutes. Then the diluted 100 ng/ml of human TNFα-biotin was added at 100 μl/well, and the mixture was mixed well by gentle pipetting, and then incubated at 4° C. for 30 minutes. The mixture was washed twice with a staining buffer, and then 0.12 μg/ml PE-streptavidin (BioLegend, Cat #405204) was added at 100 μl/well; the resulting mixture was incubated at 4° C. for 30 minutes. The mixture was washed twice with a staining buffer, and then 150 μl of staining buffer was added to resuspend the cells; signals were detected by a flow cytometer (Thermo Attune NxT). The inhibitory curve of an antibody was drawn with antibody concentration as the abscissa and corresponding MFI value as the ordinate, and fitted with four parameters (GraphPad Prism9) to calculate the IC50 value. The smaller the IC50 value, the stronger the ability of an antibody to inhibit the binding of human TNFα to human TNFR2. The blocking effect of a humanized antibody was normalized to its corresponding human-murine chimeric WT antibody. The higher the percentage value, the better the inhibitory effect of the humanized antibody.

[2] = target: T1, human TNFR2 on the surface of CHO-TNFR2 …; experiment: competition flow cytometry on CHO-TNFR2 cells, competitor TNFα-biotin; AUC against 224-WT
Description: as §1

[3] = target: T2, human TNFR2 (Novoprotein, Cat #C830) (human, UniProt P20333 23-257, limits assumed); experiment: competition ELISA, competitor human TNFα-Biotin; AUC against 224-WT
T2 construct: construct not described; also called human TNFR2 protein
T2 sequence (looked up): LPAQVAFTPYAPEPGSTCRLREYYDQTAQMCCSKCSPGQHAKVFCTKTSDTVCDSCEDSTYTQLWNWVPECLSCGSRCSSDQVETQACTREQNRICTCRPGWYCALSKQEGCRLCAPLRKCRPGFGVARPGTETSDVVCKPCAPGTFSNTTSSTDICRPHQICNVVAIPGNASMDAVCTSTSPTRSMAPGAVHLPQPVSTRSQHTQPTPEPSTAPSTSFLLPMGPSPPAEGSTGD
Description: 1 μg/ml human TNFR2 (Novoprotein, Cat #C830) was pre-coated with 100 μl/well […] in an ELISA plate. All the test TNFR2 antibodies were subjected to 2.5-fold gradient dilution from the highest concentration of 30 μg/ml; the diluted antibodies were mixed with 15 ng/ml human TNFα-Biotin (Acro Biosystem, Cat #TNA-H82E3) in equal volume, respectively; the resulting mixture was added to the ELISA plate at 100 μl/well, and incubated with shaking at room temperature for 2.0 hours. The plate was washed, and then a Streptavidin-HRP working solution (diluted at 1:10000) was added at 100 μl/well, and the mixture was incubated with shaking at room temperature for 40 minutes. The plate was washed again, and then the substrate TMB of HRP was added to develop colour. A stop solution was added to stop the reaction, and then a microplate reader (MD 13) was used to read the absorbance value. The inhibitory curve of an antibody was drawn with antibody concentration as the abscissa and corresponding OD value as the ordinate, and fitted with four parameters (GraphPad Prism9) to calculate the IC50 value. The smaller the IC50 value, the stronger the ability of an antibody to inhibit the binding of human TNFα to human TNFR2. The blocking effect of a humanized antibody was normalized to its corresponding human-murine chimeric antibody WT. The higher the percentage value, the better the inhibitory effect of the humanized antibody.

B1: 224-Hu1 (antibody, V domains shown)
VH: QVQLVQSGAEVKKPGASVKVSCKASGFNNKDIYMHWVRQAPGQGLEWIGRIDPATGNTKHDPKFQDRVTMTSDTSTNTVYMELSSLRSEDTAVYYCARSPYGDFGAMDYWGQGTLVTVSS
VL: DIQMTQSPSSLSASVGDRVTITCTASSSVSSNYLHWYQQKPGKAPKLWIYSTSNLPSGVPSRFSGSGSGTDFTLTISSLQPEDFATYYCHQYHRSPWTFGQGTKVEIK
notes: Humanized form of #224; also called VH8 + VL6
Question: What does the source list for B1?
Answer: % Relative activity (WT antibody/test antibody) [1]: 108%; % Relative activity (WT antibody/test antibody) [2]: 99.2%; % Relative activity (WT antibody/test antibody) [3]: 98.8%

B2: 224-Hu7 (antibody, V domains shown)
VH: QVQLVQSGSELKKPGASVKVSCKASGFNNKDIYMHWVRQAPGQGLEWMGRIDPATGNTKHDPKFQDKAVLSSDTSVSTAYLQISSLKAEDTAVYYCARSPYGDFGAMDYWGQGTLVTVSS
VL: DIQMTQSPSSLSASVGDRVTITCTASSSVSSNYLHWYQQKPGKAPKLLIYSTSNLPSGVPSRFSGSGSGTDFTLTISSLQPEDFATYYCHQYHRSPWTFGQGTKVEIK
notes: Humanized form of #224; also called VH9 + VL10
Question: What does the source list for B2?
Answer: % Relative activity (WT antibody/test antibody) [1]: 73%; % Relative activity (WT antibody/test antibody) [2]: 91.1%; % Relative activity (WT antibody/test antibody) [3]: 100%

B3: 224-Hu2 (antibody, V domains shown)
VH: QVQLVQSGSELKKPGASVKVSCKASGFNNKDIYMHWVRQAPGQGLEWMGRIDPATGNTKHDPKFQDKAVLSSDTSVSTAYLQISSLKAEDTAVYYCARSPYGDFGAMDYWGQGTLVTVSS
VL: DIQMTQSPSSLSASVGDRVTITCTASSSVSSNYLHWYQQKPGSSPKLWIYSTSNLPSGVPSRFSGSGSGTDFTLTISSLQPEDFATYYCHQYHRSPWTFGQGTKVEIK
notes: Humanized form of #224; also called VH9 + VL7
Question: Which results are given for B3?
Answer: % Relative activity (WT antibody/test antibody) [1]: 124%; % Relative activity (WT antibody/test antibody) [2]: 105%; % Relative activity (WT antibody/test antibody) [3]: 102%

B4: 224-Hu3 (antibody, V domains shown)
VH: QVQLVQSGSELKKPGASVKVSCKASGFNNKDIYMHWVRQAPGQGLEWMGRIDPATGNTKHDPKFQDKAVLSSDTSVSTAYLQISSLKAEDTAVYYCARSPYGDFGAMDYWGQGTLVTVSS
VL: DIQMTQSPSSLSASVGDRVTITCTASSSVSSNYLHWYQQKPGKAPKLLIYSTSNLPSGVPSRFSGSGSGTDFTLTISSLQAEDAATYYCHQYHRSPWTFGQGTKVEIK
notes: Humanized form of #224; also called VH9 + VL8
Question: How did the “% Relative activity (WT antibody/test antibody)” value [1] turn out when B4 was run?
Answer: 107%

Question: And the “% Relative activity (WT antibody/test antibody)” value [2]?
Answer: 95.6%

Question: And the “% Relative activity (WT antibody/test antibody)” value [3]?
Answer: 98.2%

B5: 224-Hu5 (antibody, V domains shown)
VH: QVQLVQSGSELKKPGASVKVSCKASGFNNKDIYMHWVRQAPGQGLEWMGRIDPATGNTKHDPKFQDKAVLSSDTSVSTAYLQISSLKAEDTAVYYCARSPYGDFGAMDYWGQGTLVTVSS
VL: DIQMTQSPSSLSASVGDRVTITCTASSSVSSNYLHWYQQKPGKAPKLLIYSTSNLPSGVPSRFSGSGSGTDYSLTISSLQPEDFATYYCHQYHRSPWTFGQGTKVEIK
notes: Humanized form of #224; also called VH9 + VL9
Question: For B5, which “% Relative activity (WT antibody/test antibody)” value [1] is on record?
Answer: 95%

Question: And the “% Relative activity (WT antibody/test antibody)” value [2]?
Answer: 94.4%

Question: What about the “% Relative activity (WT antibody/test antibody)” value [3] of the same binder?
Answer: 97.2%

B6: 224-Hu6 (antibody, V domains shown)
VH: QVQLVQSGAEVKKPGASVKVSCKASGFNNKDIYMHWVRQAPGQGLEWIGRIDPATGNTKHDPKFQDRVTMTSDTSTNTVYMELSSLRSEDTAVYYCARSPYGDFGAMDYWGQGTLVTVSS
VL: DIQMTQSPSSLSASVGDRVTITCTASSSVSSNYLHWYQQKPGSSPKLWIYSTSNLPSGVPSRFSGSGSGTDFTLTISSLQPEDFATYYCHQYHRSPWTFGQGTKVEIK
notes: Humanized form of #224; also called VH8 + VL7
Question: With B6 as the binder, how does the “% Relative activity (WT antibody/test antibody)” value [1] read?
Answer: 96%

Question: And the “% Relative activity (WT antibody/test antibody)” value [2]?
Answer: 99.4%

Question: And the “% Relative activity (WT antibody/test antibody)” value [3]?
Answer: 100%

B7: 224-Hu4 (antibody, V domains shown)
VH: QVQLVQSGSELKKPGASVKVSCKASGFNNKDIYMHWVRQAPGQGLEWMGRIDPATGNTKHDPKFQDKAVLSSDTSVSTAYLQISSLKAEDTAVYYCARSPYGDFGAMDYWGQGTLVTVSS
VL: DIQMTQSPSSLSASVGDRVTITCTASSSVSSNYLHWYQQKPGKAPKLWIYSTSNLPSGVPSRFSGSGSGTDFTLTISSLQPEDFATYYCHQYHRSPWTFGQGTKVEIK
notes: Humanized form of #224; also called VH9 + VL6
Question: Which results are given for B7?
Answer: % Relative activity (WT antibody/test antibody) [1]: 102%; % Relative activity (WT antibody/test antibody) [2]: 97.3%; % Relative activity (WT antibody/test antibody) [3]: 100%
